# Experimental data from the supplement of paper PMC10724198.
# ± gives the standard deviation of the averaged measurements.
# Test system: Saccharomyces cerevisiae
# Experiment: protein stability index of tFT-peptide fusion (C-terminal peptide) (PSI (0-1 scale)); higher = more stable (slower turnover)
# Details: genetic background: cdc53-1; temperature: 37 C
# Method: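 MPS profiling in S. cerevisiae of the tFT-X12 degron library: putative degron peptides plus stable controls, 12 aa, fused to the C-terminus of a sfGFP-mCherry timer. Cells are FACS-sorted into 8 mCherry/sfGFP bins and deep-sequenced. PSI runs from 0 (unstable) to 1 (stable). Backgrounds are wild type, das1Δ and doa10Δ at 30 °C, and wild type, das1Δ, cdc34-1 and cdc53-1 at 37 °C; 2-3 technical replicates each.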
# 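Note: PSI is a weighted mean of sequencing reads over stability bins, variants kept only with over 10 reads, mCherry proximal and sfGFP distal, peptide attached via GGGS linker.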
row,Sequence,protein stability index
1,EVPVIGVLRSLL,0.918 ± 0.014
2,EVSIISECKVAS,0.639 ± 0.059
3,FALAYFFVLKSF,0.246 ± 0.057
4,FARYLRSMYILF,0.54989 ± 0.0003
5,FAVLWFLYWCSW,0.376 ± 0.019
6,FCCSFFLCVCFV,0.371 ± 0.0043
7,FCLSPILLLRFL,0.261 ± 0.012
8,FCRPCCLIVFVV,0.295 ± 0.029
9,FFCRARHRLYVA,0.626 ± 0.059
10,FFFFLFRSIFLS,0.124 ± 0.013
11,FFFFSMLIFCAV,0.106 ± 0.025
12,FFFLLPRLFRCV,0.835 ± 0.012
13,FFLFCWFVPRFS,0.512 ± 0.0079
14,FFLLCFMMCVLL,0.291 ± 0.014
15,FFLPIFFSIFLS,0.0346 ± 0.0085
16,FFLSAFFFFFLF,0.346 ± 0.017
17,FFMLLYSFFTFD,0.50402 ± 2.8e-06
18,FFSSSASVLFII,0.7852 ± 0.0067
19,FFTLLLFLFFSV,0.278 ± 0.032
20,FFVACCSFVFLL,0.436 ± 0.03
21,FGFGSSRFLLCL,0.731 ± 0.0042
22,FGFLVVLFDCVR,0.437 ± 0.015
23,FGVFLLWCVLLL,0.297 ± 0.017
24,FIAVSLSVFLVF,0.286 ± 0.0034
25,FIFLFVALFCVF,0.343 ± 0.0083
26,FILIFLGILSCC,0.453 ± 0.058

row,Sequence,protein stability index
1,FIYSVFFYSYWF,0.467 ± 0.033
2,FLFLESFLFFYL,0.4797 ± 0.0046
3,FLFVFLGVYGHV,0.409 ± 0.018
4,FLGPYTPGMYLA,0.7393 ± 0.0022
5,FLISVRFVLILN,0.186 ± 0.012
6,FLLFLPLLFFFL,0.396 ± 0.0095
7,FLLHLVAHFSFL,0.571 ± 0.0063
8,FLLIVSSVSFYL,0.2981 ± 0.00045
9,FLLLSCLVRRSF,0.6 ± 0.018
10,FLRFVFSFTFFV,0.382 ± 0.019
11,FLVGVARCPFLV,0.7 ± 0.015
12,FLVLLFCLFFCF,0.447 ± 0.021
13,FMCGWRMLVSVS,0.0371 ± 0.0077
14,FPGLPVFFPPPL,0.766 ± 0.015
15,FPRLERVAVMAR,0.127 ± 0.035
16,FQILLRFFRSVA,0.657 ± 0.025
17,FRAKRTVFQRNS,0.737 ± 0.039
18,FRFFRPSFRFFC,0.713 ± 0.021
19,FRFPCSILMTLL,0.6111 ± 0.0035
20,FRQEVLHWRQHS,0.712 ± 0.032
21,FRWLAFALLFGC,0.477 ± 0.027
22,FSARPFLYSFRP,0.743 ± 0.0082
23,FSCEFKMSCLKS,0.701 ± 0.0097
24,FSIFFIIEFVGT,0.211 ± 0.0069
25,FSSYLSALLIVV,0.1279 ± 0.00017
26,FSYVGFFFLLGF,0.471 ± 0.0073

row,Sequence,protein stability index
1,FTYCIVFFFSRL,0.537 ± 0.038
2,FTYFFFVRVLLV,0.14 ± 0.01
3,FVCSSVFVVLLF,0.423 ± 0.023
4,FVFLCLLCISSF,0.286 ± 0.011
5,FVGCFVFYLFLL,0.479 ± 0.016
6,FVRVFMASIIWC,0.487 ± 0.034
7,FVVFAFGVLPVK,0.5131 ± 0.0027
8,FVVRVVCRLGFF,0.338 ± 0.014
9,FWFSFLLSGVCC,0.171 ± 0.013
10,FWFVSVFIVFFC,0.26 ± 0.021
11,FYLPGLFFVRFR,0.0822 ± 0.053
12,FYVIFRRACLSV,0.32 ± 0.016
13,GACGLGMLIFIV,0.618 ± 0.03
14,GAPIFSSFLLFC,0.652 ± 0.022
15,GARCFGFFCFLV,0.507 ± 0.027
16,GCIFGNVVFVRV,0.6098 ± 0.0023
17,GCIMHLTIYVRD,0.3761 ± 0.0008
18,GCPRSWSFNIYV,0.739 ± 0.0099
19,GCRSLRLWLTFS,0.7023 ± 0.0065
20,GCVVVLIPVVSA,0.338 ± 0.0038
21,GEAYVYLFVYSC,0.467 ± 0.0051
22,GEWCLPLRLVVY,0.0685 ± 0.024
23,GFCVRIFHGFLH,0.7 ± 0.044
24,GFDVFWLWVVVA,0.208 ± 0.017
25,GFRMACYIRVLS,0.38 ± 0.017
26,GFSFVCFSPFLF,0.779 ± 0.02

# Same assay, conditions: genetic background: das1 deletion; temperature: 30 C
row,Sequence,protein stability index
1,EVPVIGVLRSLL,0.804 ± 0.018
2,EVSIISECKVAS,0.44 ± 0.019
3,FALAYFFVLKSF,0.243 ± 0.045
4,FARYLRSMYILF,0.5426 ± 0.0032
5,FAVLWFLYWCSW,0.282 ± 0.026
6,FCCSFFLCVCFV,0.309 ± 0.019
7,FCLSPILLLRFL,0.355 ± 0.024
8,FCRPCCLIVFVV,0.253 ± 0.036
9,FFCRARHRLYVA,0.626 ± 0.012
10,FFFFLFRSIFLS,0.293 ± 0.05
11,FFFFSMLIFCAV,0.156 ± 0.016
12,FFFLLPRLFRCV,0.707 ± 0.03
13,FFLFCWFVPRFS,0.379 ± 0.027
14,FFLLCFMMCVLL,0.289 ± 0.043
15,FFLPIFFSIFLS,0.152 ± 0.017
16,FFLSAFFFFFLF,0.359 ± 0.015
17,FFMLLYSFFTFD,0.38 ± 0.033
18,FFSSSASVLFII,0.663 ± 0.029
19,FFTLLLFLFFSV,0.3 ± 0.026
20,FFVACCSFVFLL,0.35 ± 0.022
21,FGFGSSRFLLCL,0.609 ± 0.027
22,FGFLVVLFDCVR,0.327 ± 0.034
23,FGVFLLWCVLLL,0.213 ± 0.023
24,FIAVSLSVFLVF,0.189 ± 0.022
25,FIFLFVALFCVF,0.327 ± 0.017
26,FILIFLGILSCC,0.356 ± 0.026

row,Sequence,protein stability index
1,FIYSVFFYSYWF,0.287 ± 0.015
2,FLFLESFLFFYL,0.418 ± 0.03
3,FLFVFLGVYGHV,0.271 ± 0.044
4,FLGPYTPGMYLA,0.658 ± 0.015
5,FLISVRFVLILN,0.175 ± 0.021
6,FLLFLPLLFFFL,0.396 ± 0.024
7,FLLHLVAHFSFL,0.517 ± 0.0071
8,FLLIVSSVSFYL,0.213 ± 0.024
9,FLLLSCLVRRSF,0.454 ± 0.017
10,FLRFVFSFTFFV,0.408 ± 0.031
11,FLVGVARCPFLV,0.587 ± 0.018
12,FLVLLFCLFFCF,0.43 ± 0.024
13,FMCGWRMLVSVS,0.0474 ± 0.016
14,FPGLPVFFPPPL,0.689 ± 0.026
15,FPRLERVAVMAR,0.177 ± 0.032
16,FQILLRFFRSVA,0.551 ± 0.022
17,FRAKRTVFQRNS,0.668 ± 0.028
18,FRFFRPSFRFFC,0.624 ± 0.0092
19,FRFPCSILMTLL,0.538 ± 0.021
20,FRQEVLHWRQHS,0.633 ± 0.035
21,FRWLAFALLFGC,0.38 ± 0.012
22,FSARPFLYSFRP,0.667 ± 0.025
23,FSCEFKMSCLKS,0.601 ± 0.023
24,FSIFFIIEFVGT,0.209 ± 0.015
25,FSSYLSALLIVV,0.176 ± 0.017
26,FSYVGFFFLLGF,0.346 ± 0.021

row,Sequence,protein stability index
1,FTYCIVFFFSRL,0.383 ± 0.038
2,FTYFFFVRVLLV,0.156 ± 0.031
3,FVCSSVFVVLLF,0.295 ± 0.029
4,FVFLCLLCISSF,0.214 ± 0.027
5,FVGCFVFYLFLL,0.418 ± 0.031
6,FVRVFMASIIWC,0.395 ± 0.029
7,FVVFAFGVLPVK,0.389 ± 0.028
8,FVVRVVCRLGFF,0.218 ± 0.027
9,FWFSFLLSGVCC,0.272 ± 0.029
10,FWFVSVFIVFFC,0.222 ± 0.043
11,FYLPGLFFVRFR,0.313 ± 0.043
12,FYVIFRRACLSV,0.234 ± 0.03
13,GACGLGMLIFIV,0.427 ± 0.026
14,GAPIFSSFLLFC,0.579 ± 0.032
15,GARCFGFFCFLV,0.447 ± 0.032
16,GCIFGNVVFVRV,0.424 ± 0.03
17,GCIMHLTIYVRD,0.265 ± 0.026
18,GCPRSWSFNIYV,0.665 ± 0.013
19,GCRSLRLWLTFS,0.628 ± 0.02
20,GCVVVLIPVVSA,0.249 ± 0.038
21,GEAYVYLFVYSC,0.276 ± 0.036
22,GEWCLPLRLVVY,0.185 ± 0.021
23,GFCVRIFHGFLH,0.649 ± 0.018
24,GFDVFWLWVVVA,0.192 ± 0.032
25,GFRMACYIRVLS,0.245 ± 0.046
26,GFSFVCFSPFLF,0.65 ± 0.0058
